Data published in PMC2808226 (Molecular Biology of the Cell, 2010).

What was measured:
[1] = biological target: nicotinic acetylcholine receptor (mouse (endogenous in gastrocnemius muscle and in myotubes)) (UniProt P04756); assay: pull-down
nAChR-α-c-myc = nAChR-α-c-myc (UniProt P04756 21-457); assay: co-IP
Sequence of nAChR-α-c-myc (P04756 21-457): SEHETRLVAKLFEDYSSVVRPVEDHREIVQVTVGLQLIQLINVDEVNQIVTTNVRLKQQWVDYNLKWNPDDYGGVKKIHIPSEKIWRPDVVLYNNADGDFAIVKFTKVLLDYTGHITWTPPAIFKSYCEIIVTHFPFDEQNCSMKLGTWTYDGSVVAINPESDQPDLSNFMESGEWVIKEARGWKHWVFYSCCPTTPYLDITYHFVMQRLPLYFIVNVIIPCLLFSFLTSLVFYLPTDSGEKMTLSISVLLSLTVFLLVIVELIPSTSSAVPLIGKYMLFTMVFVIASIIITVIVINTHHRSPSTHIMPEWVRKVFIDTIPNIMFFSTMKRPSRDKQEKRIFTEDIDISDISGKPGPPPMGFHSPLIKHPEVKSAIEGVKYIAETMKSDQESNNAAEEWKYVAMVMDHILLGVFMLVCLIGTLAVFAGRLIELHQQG

Sequence of nicotinic acetylcholine receptor (mouse (endogenous in gastrocnemius muscle and in myotubes)) (P04756 whole entry, looked up): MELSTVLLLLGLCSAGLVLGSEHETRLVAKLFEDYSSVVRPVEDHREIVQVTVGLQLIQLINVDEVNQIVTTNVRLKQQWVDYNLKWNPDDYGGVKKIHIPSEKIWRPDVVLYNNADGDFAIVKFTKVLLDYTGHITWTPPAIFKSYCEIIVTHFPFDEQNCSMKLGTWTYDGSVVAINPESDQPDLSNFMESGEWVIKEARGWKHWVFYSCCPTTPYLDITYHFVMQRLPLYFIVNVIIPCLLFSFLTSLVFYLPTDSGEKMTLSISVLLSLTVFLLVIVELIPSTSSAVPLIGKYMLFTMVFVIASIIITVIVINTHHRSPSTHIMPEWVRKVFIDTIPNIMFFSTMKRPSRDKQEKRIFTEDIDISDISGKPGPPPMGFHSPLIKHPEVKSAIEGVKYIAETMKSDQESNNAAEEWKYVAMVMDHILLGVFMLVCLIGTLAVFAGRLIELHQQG

Molecule: caveolin-3 (from UniProt P51637 1-151) (natural protein)
- percent of caveolin-3 that interacts with the nAChR, after agrin treatment [1]: 5%

B1: caveolin-3-c-myc (natural protein)
chain: MMTEEHTDLEARIIKDIHCKEIDLVNRDPKNINEDIVKVDFEDVIAEPEGTYSFDGVWKVSFTTFTVSKYWCYRLLSTLLGVPLALLWGFLFACISFCHIWAVVPCIKSYLIEIQCISHIYSLCIRTFCNPLFAALGQVCSNIKVVLRREG
- stoichiometry N (nAChR-α-c-myc): ~14 caveolin-3 per nAChR
- percent of caveolin-3 that interacts with the nAChR, resting conditions [1]: 0.25%
